The chains are these.
T1: DMP1 expressed in 293T cells (Mus musculus) (UniProt Q8CE22)
T1 sequence: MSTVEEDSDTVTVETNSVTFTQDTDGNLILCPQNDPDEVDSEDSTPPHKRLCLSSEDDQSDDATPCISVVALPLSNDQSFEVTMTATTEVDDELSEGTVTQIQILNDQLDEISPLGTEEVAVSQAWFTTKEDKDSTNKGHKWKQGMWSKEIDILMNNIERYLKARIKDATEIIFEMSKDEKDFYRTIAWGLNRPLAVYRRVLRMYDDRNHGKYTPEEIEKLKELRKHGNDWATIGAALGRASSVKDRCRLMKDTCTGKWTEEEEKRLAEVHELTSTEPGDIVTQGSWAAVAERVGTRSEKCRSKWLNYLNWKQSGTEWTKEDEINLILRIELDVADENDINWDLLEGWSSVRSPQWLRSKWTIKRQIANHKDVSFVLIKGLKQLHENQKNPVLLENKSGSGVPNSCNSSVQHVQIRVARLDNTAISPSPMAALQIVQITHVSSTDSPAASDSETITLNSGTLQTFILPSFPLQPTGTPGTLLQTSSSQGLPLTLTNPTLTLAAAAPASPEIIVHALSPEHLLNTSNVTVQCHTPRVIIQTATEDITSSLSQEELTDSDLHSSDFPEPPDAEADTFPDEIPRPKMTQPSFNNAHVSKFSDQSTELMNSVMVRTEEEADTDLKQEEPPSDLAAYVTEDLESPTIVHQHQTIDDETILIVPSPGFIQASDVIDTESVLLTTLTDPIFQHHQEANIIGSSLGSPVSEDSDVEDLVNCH

T2: GST-DMP1 fusion protein (GST fused to residues 176-761 of DMP1)
T2 chain: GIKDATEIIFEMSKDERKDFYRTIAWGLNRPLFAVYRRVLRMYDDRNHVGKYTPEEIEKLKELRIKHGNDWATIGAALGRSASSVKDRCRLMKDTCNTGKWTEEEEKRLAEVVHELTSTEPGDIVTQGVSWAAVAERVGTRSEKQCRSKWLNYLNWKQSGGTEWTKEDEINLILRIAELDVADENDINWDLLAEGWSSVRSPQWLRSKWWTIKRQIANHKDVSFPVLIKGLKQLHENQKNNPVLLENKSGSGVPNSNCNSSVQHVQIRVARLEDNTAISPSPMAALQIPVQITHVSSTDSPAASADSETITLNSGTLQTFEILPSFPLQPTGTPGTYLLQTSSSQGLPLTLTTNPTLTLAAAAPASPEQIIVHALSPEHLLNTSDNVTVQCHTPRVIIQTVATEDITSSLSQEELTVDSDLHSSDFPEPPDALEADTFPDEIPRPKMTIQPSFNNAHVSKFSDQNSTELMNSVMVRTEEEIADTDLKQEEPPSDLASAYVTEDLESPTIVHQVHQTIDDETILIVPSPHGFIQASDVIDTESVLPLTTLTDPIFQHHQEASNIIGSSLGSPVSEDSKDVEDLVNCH

T3: DMP1 (cyclin D-binding myb-like protein), murine, full length (mouse, UniProt Q8CE22 1-761, multiple phosphorylated forms when made in Sf9 cells (sites not given))
T3 sequence: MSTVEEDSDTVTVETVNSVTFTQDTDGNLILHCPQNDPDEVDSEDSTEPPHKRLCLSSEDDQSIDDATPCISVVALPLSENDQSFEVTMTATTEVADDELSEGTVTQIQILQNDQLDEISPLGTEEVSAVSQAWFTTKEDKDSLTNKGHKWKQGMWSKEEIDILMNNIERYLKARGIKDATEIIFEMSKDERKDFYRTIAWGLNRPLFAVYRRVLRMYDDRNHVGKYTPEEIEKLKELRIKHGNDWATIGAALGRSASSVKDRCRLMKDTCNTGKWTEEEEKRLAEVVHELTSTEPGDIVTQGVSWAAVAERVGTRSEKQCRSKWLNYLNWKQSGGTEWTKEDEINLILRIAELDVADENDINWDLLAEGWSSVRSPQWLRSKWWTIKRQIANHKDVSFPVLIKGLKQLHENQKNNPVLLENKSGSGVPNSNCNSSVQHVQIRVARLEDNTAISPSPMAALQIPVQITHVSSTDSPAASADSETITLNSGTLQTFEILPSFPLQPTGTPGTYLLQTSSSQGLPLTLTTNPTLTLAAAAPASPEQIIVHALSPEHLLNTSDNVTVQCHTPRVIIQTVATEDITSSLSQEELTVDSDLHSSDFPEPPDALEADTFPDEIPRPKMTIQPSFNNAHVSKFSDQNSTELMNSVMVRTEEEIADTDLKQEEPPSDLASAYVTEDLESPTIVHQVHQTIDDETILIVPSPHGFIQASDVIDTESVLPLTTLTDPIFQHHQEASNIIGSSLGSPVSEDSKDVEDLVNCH

B1: cyclin D1-CDK4 complex (protein)
chain 1: MEHQLLCCEVETIRRAYPDTNLLNDRVLRAMLKTEETCAPSVSYFKCVQKEIVPSMRKIVATWMLEVCEEQKCEEEVFPLAMNYLDRFLSLEPLKKSRLQLLGATCMFVASKMKETIPLTAEKLCIYTDNSIRPEELLQMELLLVNKLKWNLAAMTPHDFIEHFLSKMPEADENKQTIRKHAQTFVALCATDVKFISNPPSMVAAGSVVAAMQGLNLGSPNNFLSCYRTTHFLSRVIKCDPDCLRACQEQIEALLESSLRQAQQNVDPKATEEEGEVEEEAGLACTPTDVRDVDI
chain 2: MAATRYEPVAEIGVGAYGTVYKARDPHSGHFVALKSVRVPNGGAAGGGLPVSTVREVALLRRLEAFEHPNVVRLMDVCATSRTDRDIKVTLVFEHIDQDLRTYLDKAPPPGLPVETIKDLMRQFLSGLDFLHANCIVHRDLKPENILVTSNGTVKLADFGLARIYSYQMALTPVVVTLWYRAPEVLLQSTYATPVDMWSVGCIFAEMFRRKPLFCGNSEADQLGKIFDLIGLPPEDDWPREVSLPRGAFAPRGPRPVQSVVPEMEESGAQLLLEMLTFNPHKRISAFRALQHSYLHKEESDAE
B2: cyclin D3-CDK4 complex (protein)
chain 1: MELLCCEGTRHAPRAGPDPRLLGDQRVLQSLLRLEERYVPRASYFQCVQKEIKPHMRKMLAYWMLEVCEEQRCEEDVFPLAMNYLDRYLSCVPTRKAQLQLLGTVCLLLASKLRETTPLTIEKLCIYTDQAVAPWQLREWEVLVLGKLKWDLAAVIAHDFLALILHRLSLPSDRQALVKKHAQTFLALCATDYTFAMYPPSMIATGSIGAAVLGLGACSMSADELTELLAGITGTEVDCLRACQEQIEAALRESLREAAQTAPSPVPKAPRGSSSQGPSQTSTPTDVTAIHL
chain 2: B1 chain 2
B3: cyclin D2-CDK4 complex (protein)
chain 1: MELLCCEVDPVRRAVPDRNLLEDRVLQNLLTIEERYLPQCSYFKCVQKDIQPYMRRMVATWMLEVCEEQKCEEEVFPLAMNYLDRFLAGVPTPKTHLQLLGAVCMFLASKLKETIPLTAEKLCIYTDNSVKPQELLEWELVVLGKLKWNLAAVTPHDFIEHILRKLPQQKEKLSLIRKHAQTFIALCATDFKFAMYPPSMIATGSVGAAICGLQQDDEVNTLTCDALTELLAKITHTDVDCLKACQEQIEALLLNSLQQFRQEQHNAGSKSVEDPDQATTPTDVRDVDL
chain 2: B1 chain 2
B4: cyclin D1 (other, mouse, UniProt P25322 1-295, looked up)
chain: B1 chain 1
B5: cyclin D3 (other, mouse, UniProt P30282 1-292, looked up)
chain: B2 chain 1
B6: cyclin D2 (other, mouse, UniProt P30280 1-289, looked up)
chain: B3 chain 1

The series “cyclin D2” concerns the target B6. Nature of the series: GST pull-down of 35S-labelled in vitro translated cyclin on glutathione-Sepharose, gel autoradiography. How it is done: (§1) Because DMP1 interacted with cyclin D2 in yeast, the ability of a glutathione S-transferase (GST)-DMP1 fusion protein to bind D-type cyclins in vitro is examined. GST is fused to residues 176-761 of DMP1 (in lieu of GAL4 in the original cDNA clone), and the bacterially synthesized recombinant protein is incubated with [³⁵S]methionine-labeled D-type cyclins prepared by transcription and translation in vitro. As a positive control, GST-RB which can specifically bind D-type cyclins in this assay is used (15). Bound cyclins recovered on washed glutathione-Sepharose beads are analyzed by electrophoresis on denaturing gels. […] GST-DMP1 is less efficient than GST-RB in binding cyclins D2 and D3 (˜4-fold less binding), and under these conditions, an interaction with D1 is not detected (lanes 3, 7, 11). No labeled proteins bind to GST alone (lanes 4, 8, 12), and neither cyclin A nor cyclin E bind to GST-RB or to GST-DMP1. A cyclin D2 mutant disrupted in an amino-terminal Leu-X-Cys-X-Glu pentapeptide that is required for high efficiency GST-RB binding is not detectably compromised in its interaction with GST-DMP1 (negative data not shown); in agreement, DMP1 bears no homology to RB or to RB-related family members (p107 and p130).

For the series “cyclin D3”, the target named is B5. The series is described as above. How it is done:
as §1

Series [1] has as its target T1, DMP1 expressed in 293T cells (Mus musculus). Nature of the series: cell_activity. The conditions noted are these: 6x BS1 luciferase reporter.
In series [2] the target is GST-RB fusion protein [GST: P08515].
GST-RB fusion protein [GST: P08515], sequence (P08515 whole entry, looked up, the tested form may be a part): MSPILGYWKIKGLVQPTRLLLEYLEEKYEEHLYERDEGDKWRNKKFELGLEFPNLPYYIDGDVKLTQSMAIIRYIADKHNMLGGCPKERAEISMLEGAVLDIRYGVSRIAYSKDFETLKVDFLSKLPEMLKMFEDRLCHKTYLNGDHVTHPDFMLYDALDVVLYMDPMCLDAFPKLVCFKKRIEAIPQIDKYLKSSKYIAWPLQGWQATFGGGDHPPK
Series [3] has as its target T2, GST-DMP1 fusion protein (GST fused to …).
Series [4] deals with T3, DMP1 (cyclin D-binding myb-like …). Nature of the series: cell-based or functional assay.

Regarding “GST-RB fusion protein (from UniProt P08515 1-218)”, the percent of the total input protein bound with cyclin D2 and in the series with cyclin D3 was 20% throughout. Molecule “AATTGACCCGGATGTAGGTACGC (double strand) [BS1]” returned an activity (fold activation) in series [1] of 7. Turning to B1, the “in vitro phosphorylation of the GST fusion protein by Sf9 lysates (32P)” value (shortened to “in vitro phosphorylation”) is on record as “Under equivalent conditions, GST-RB is always a preferred substrate” in series [2] and “lysates containing active cyclin D-CDK4 complexes phosphorylate both” in series [3]. Regarding B2, the “in vitro phosphorylation” value in series [2] is listed as “Under equivalent conditions, GST-RB is always a preferred substrate”; in series [3], “different preparations of cyclin D3-CDK4 are routinely more active than D2- or D1-containing holoenzymes in phosphorylating DMP1”. As to B3, the “in vitro phosphorylation” value in series [2] was “Under equivalent conditions, GST-RB is always a preferred substrate”; in series [3], “lysates containing active cyclin D-CDK4 complexes phosphorylate both”. For B4, the “Luciferase Activity (DMP1 transactivation of a DMP1-responsive reporter; DMP1 alone 8.4, no DMP1 1.0)” value in series [4] is 1.5 relative to empty expression vector = 1.0.

Take B5: the “Luciferase Activity (DMP1 transactivation of a DMP1-responsive reporter; DMP1 alone 8.4, no DMP1 1.0)” value in series [4] was 1.6 relative to empty expression vector = 1.0.

B6: the “Luciferase Activity (DMP1 transactivation of a DMP1-responsive reporter; DMP1 alone 8.4, no DMP1 1.0)” value in series [4] is 1.6 relative to empty expression vector = 1.0.
